{
  "source": "the RNAGym collection of RNA variant scans (doi:10.7554/elife.80360)",
  "parents": {"B1": {"name": "Hammerhead Ribozyme (parent)", "chain": "ACCGGAUGUGCUUUCCGGUCUGAUGAGUCCGUGAGGACGAAACAG"}},
  "data": [
    {"variants_of": "B1", "assay": "self-cleavage, relative activity (ratio to wild type); higher = more cleavage; co-transcriptional", "values": [
      {"variant": "A1U A40G", "self-cleavage": 0.383},
      {"variant": "U21C G33A", "self-cleavage": 0.74},
      {"variant": "U24A A26G", "self-cleavage": 0.332},
      {"variant": "C20G G27U", "self-cleavage": 0.265},
      {"variant": "U9C G18A", "self-cleavage": 0.627},
      {"variant": "C29A A40G", "self-cleavage": 0.294},
      {"variant": "U24C A41C", "self-cleavage": 0.305},
      {"variant": "G39C A40G", "self-cleavage": 0.331},
      {"variant": "G10A C38A", "self-cleavage": 0.814},
      {"variant": "G17C A41G", "self-cleavage": 0.388},
      {"variant": "U32G G45A", "self-cleavage": 0.56},
      {"variant": "G17C G33C", "self-cleavage": 0.458},
      {"variant": "G18U G27U", "self-cleavage": 0.53},
      {"variant": "U32A", "self-cleavage": 0.949},
      {"variant": "A26G C43A", "self-cleavage": 0.325},
      {"variant": "C30U C43G", "self-cleavage": 0.343},
      {"variant": "G17U G33C", "self-cleavage": 0.851},
      {"variant": "G5A A37U", "self-cleavage": 0.603},
      {"variant": "C2G C38U", "self-cleavage": 0.338},
      {"variant": "G31C A44C", "self-cleavage": 0.441},
      {"variant": "G10U A40G", "self-cleavage": 0.36},
      {"variant": "U24C G31A", "self-cleavage": 0.924},
      {"variant": "G17C C29G", "self-cleavage": 0.349},
      {"variant": "G17C C29U", "self-cleavage": 0.542},
      {"variant": "A34C G36A", "self-cleavage": 0.345},
      {"variant": "C11A C30U", "self-cleavage": 0.87},
      {"variant": "A34G A42C", "self-cleavage": 0.294},
      {"variant": "C15A G33A", "self-cleavage": 0.921},
      {"variant": "G35C A41C", "self-cleavage": 0.337},
      {"variant": "G31C A42C", "self-cleavage": 0.328},
      {"variant": "C15U G22U", "self-cleavage": 0.386},
      {"variant": "C11A A23G", "self-cleavage": 0.371},
      {"variant": "C38A G39C", "self-cleavage": 0.4},
      {"variant": "G35C A40C", "self-cleavage": 0.466},
      {"variant": "G8A U12C", "self-cleavage": 0.897},
      {"variant": "U32A A34C", "self-cleavage": 0.796},
      {"variant": "G39A A44G", "self-cleavage": 0.718},
      {"variant": "C2U G10A", "self-cleavage": 1.22},
      {"variant": "C38A C43U", "self-cleavage": 0.462},
      {"variant": "G18U U28G", "self-cleavage": 0.581},
      {"variant": "A26C G35U", "self-cleavage": 0.334},
      {"variant": "G36C C43A", "self-cleavage": 0.35},
      {"variant": "U7C G22C", "self-cleavage": 0.338},
      {"variant": "G36C A41G", "self-cleavage": 0.449},
      {"variant": "U24C C43G", "self-cleavage": 0.36},
      {"variant": "C15U A44C", "self-cleavage": 0.596},
      {"variant": "C2A C29G", "self-cleavage": 0.378},
      {"variant": "C2A C29U", "self-cleavage": 0.584},
      {"variant": "C15G U24C", "self-cleavage": 0.818},
      {"variant": "G31U A40G", "self-cleavage": 0.382},
      {"variant": "A1C A40U", "self-cleavage": 0.484},
      {"variant": "G5C G31C", "self-cleavage": 0.613},
      {"variant": "G10A G45U", "self-cleavage": 0.767},
      {"variant": "G10A G45C", "self-cleavage": 0.93},
      {"variant": "G8A G17A", "self-cleavage": 0.539},
      {"variant": "C30A G36C", "self-cleavage": 0.525},
      {"variant": "U13A C38U", "self-cleavage": 1.5},
      {"variant": "U28C U32A", "self-cleavage": 0.984},
      {"variant": "A23C U32A", "self-cleavage": 0.466},
      {"variant": "A23G A42U", "self-cleavage": 0.335},
      {"variant": "C3A C11A", "self-cleavage": 0.754},
      {"variant": "G22A A34U", "self-cleavage": 0.309},
      {"variant": "U24A U28A", "self-cleavage": 0.729},
      {"variant": "G17C G18U", "self-cleavage": 0.455},
      {"variant": "G17U G36A", "self-cleavage": 0.621},
      {"variant": "U28G G39A", "self-cleavage": 0.411},
      {"variant": "G8U G45C", "self-cleavage": 0.768},
      {"variant": "A26G G36A", "self-cleavage": 0.319},
      {"variant": "U12A", "self-cleavage": 1.05},
      {"variant": "G18C A41C", "self-cleavage": 0.303},
      {"variant": "G4A A6U", "self-cleavage": 0.377},
      {"variant": "A1U U24G", "self-cleavage": 0.508},
      {"variant": "C16A", "self-cleavage": 1.21},
      {"variant": "C16U", "self-cleavage": 0.983},
      {"variant": "G5A A40C", "self-cleavage": 0.476},
      {"variant": "U13G G33U", "self-cleavage": 0.801},
      {"variant": "U9A G22C", "self-cleavage": 0.359},
      {"variant": "G8A A37C", "self-cleavage": 1.06},
      {"variant": "C15A A34C", "self-cleavage": 1.09},
      {"variant": "A42C G45C", "self-cleavage": 0.451},
      {"variant": "U28G G36C", "self-cleavage": 0.317},
      {"variant": "U28G C38G", "self-cleavage": 0.542},
      {"variant": "G36A A41U", "self-cleavage": 0.279},
      {"variant": "G10U G36A", "self-cleavage": 0.65},
      {"variant": "U21C U32C", "self-cleavage": 0.96},
      {"variant": "A34G G39C", "self-cleavage": 0.338},
      {"variant": "C16U A37U", "self-cleavage": 0.848},
      {"variant": "A1U G27A", "self-cleavage": 0.437},
      {"variant": "A1G U14A", "self-cleavage": 1.46},
      {"variant": "U7A G35U", "self-cleavage": 0.751},
      {"variant": "C11G C30G", "self-cleavage": 1.22},
      {"variant": "G4C U14C", "self-cleavage": 0.475},
      {"variant": "G10A G35A", "self-cleavage": 0.853},
      {"variant": "U28C C30G", "self-cleavage": 0.322},
      {"variant": "C2G G33C", "self-cleavage": 0.443},
      {"variant": "U9G G36U", "self-cleavage": 0.569},
      {"variant": "A6U C11G", "self-cleavage": 0.827},
      {"variant": "C16G A37C", "self-cleavage": 0.737},
      {"variant": "A6G C16A", "self-cleavage": 0.825},
      {"variant": "C3A A23C", "self-cleavage": 0.352},
      {"variant": "C16U G18U", "self-cleavage": 0.746},
      {"variant": "C20U C38U", "self-cleavage": 0.501},
      {"variant": "U21A A44U", "self-cleavage": 0.283},
      {"variant": "G35U G36C", "self-cleavage": 0.476},
      {"variant": "U21C G35A", "self-cleavage": 0.741},
      {"variant": "U28A G45A", "self-cleavage": 0.436},
      {"variant": "A1G U19C", "self-cleavage": 2.02},
      {"variant": "U19G G22A", "self-cleavage": 0.394},
      {"variant": "C20G A34U", "self-cleavage": 0.383},
      {"variant": "U14A G31U", "self-cleavage": 1.31},
      {"variant": "G17A C30G", "self-cleavage": 0.476},
      {"variant": "U24G C30U", "self-cleavage": 0.996},
      {"variant": "A1C G33C", "self-cleavage": 0.321},
      {"variant": "A1C U12G", "self-cleavage": 0.325},
      {"variant": "G25U G45C", "self-cleavage": 0.398},
      {"variant": "G22C G27U", "self-cleavage": 0.352},
      {"variant": "C15A A23U", "self-cleavage": 0.276},
      {"variant": "U21G A34G", "self-cleavage": 0.602},
      {"variant": "C11G C16G", "self-cleavage": 0.999},
      {"variant": "A6U U9C", "self-cleavage": 0.654},
      {"variant": "C11G C38G", "self-cleavage": 0.692},
      {"variant": "C20U U32G", "self-cleavage": 0.494},
      {"variant": "U21A G45A", "self-cleavage": 0.329},
      {"variant": "U9A A41U", "self-cleavage": 0.37},
      {"variant": "C16G G39U", "self-cleavage": 0.345},
      {"variant": "U19A G45C", "self-cleavage": 0.405},
      {"variant": "G35A A40C", "self-cleavage": 0.435},
      {"variant": "C16U A41U", "self-cleavage": 0.264},
      {"variant": "U13A G17U", "self-cleavage": 1.02},
      {"variant": "G10A C11G", "self-cleavage": 1.35},
      {"variant": "C2G G25A", "self-cleavage": 0.325},
      {"variant": "G4C A34U", "self-cleavage": 0.585},
      {"variant": "C16U A44C", "self-cleavage": 0.586},
      {"variant": "A1U G31C", "self-cleavage": 0.621},
      {"variant": "C15G U21G", "self-cleavage": 0.326},
      {"variant": "U9A U21C", "self-cleavage": 0.649},
      {"variant": "U7G A42G", "self-cleavage": 0.33},
      {"variant": "U9G A26G", "self-cleavage": 0.345},
      {"variant": "G8A A41G", "self-cleavage": 0.331},
      {"variant": "G39U A41C", "self-cleavage": 0.368},
      {"variant": "G25C A40G", "self-cleavage": 0.447},
      {"variant": "A34C A40U", "self-cleavage": 0.419},
      {"variant": "U14A C15U", "self-cleavage": 0.994},
      {"variant": "C2G G31C", "self-cleavage": 0.376},
      {"variant": "C2A G35C", "self-cleavage": 0.429},
      {"variant": "C15A A26G", "self-cleavage": 0.248},
      {"variant": "G10U A23G", "self-cleavage": 0.388},
      {"variant": "C29G G39U", "self-cleavage": 0.334},
      {"variant": "G5C", "self-cleavage": 0.669},
      {"variant": "U14G G31U", "self-cleavage": 0.51},
      {"variant": "U32A A41G", "self-cleavage": 0.358},
      {"variant": "G17C A23G", "self-cleavage": 0.417},
      {"variant": "G22C G33A", "self-cleavage": 0.266},
      {"variant": "U32A A42G", "self-cleavage": 0.238},
      {"variant": "G5C U12C", "self-cleavage": 0.703},
      {"variant": "G5C U12G", "self-cleavage": 0.773},
      {"variant": "U9C C38G", "self-cleavage": 0.805},
      {"variant": "U9A C16U", "self-cleavage": 1.11},
      {"variant": "A34C G35A", "self-cleavage": 0.893},
      {"variant": "U14C G33C", "self-cleavage": 0.851},
      {"variant": "U9C G10C", "self-cleavage": 1.07},
      {"variant": "U13G C30A", "self-cleavage": 0.933},
      {"variant": "C16U U24C", "self-cleavage": 1.12},
      {"variant": "G33C A34G", "self-cleavage": 1.19},
      {"variant": "G8U G31C", "self-cleavage": 1.18},
      {"variant": "G8U G31U", "self-cleavage": 1.08},
      {"variant": "U32G A37U", "self-cleavage": 0.46}
    ]}
  ]
}
